Measurements: patent publication US5705355A, “Hirudin, pharmaceutical compositions comprising it and their use” (Transgene, S.A., priority 1984, dated 1998)
Like-named read-outs stand apart in the source and are kept apart here.

Legend:
[1] = system: plasmin, chymotrypsin A, trypsin, papain, pepsin, subtilopeptidase A; details: cited from earlier work
thrombin [2] = target: T1, thrombin (Homo sapiens, UniProt P00734); details: cited from earlier work
DIC = details: rat, in vivo; cited from earlier work
[3] = system: rats, dogs, rabbits and mice; details: in vivo, iv; cited from earlier work
[4] = in vivo; cited from earlier work
mice = details: cited from earlier work
rabbits = details: intravenously and subcutaneously; cited from earlier work
[5] = heat / acid-heat treatment (70° C., pH 2.8, 15 min), antithrombin activity afterwards; type: physicochemical
Description: In order to characterize the hirudin obtained from E. coli, analysis was performed directly on culture samples after induction, which were heated to 70° C. for 15 min or heated to 70° C. after reduction of the pH to 2.8 with HCl.
In the latter case, the pH of the extract was brought back to neutral before being assayed. […] This can reflect either the degradation or the inactivation of constituents of the extract which inhibited the action of hirudin, or possibly the rather low pH and the heating stage may, in some cases, provide for a more complete reforming of the disulfide bridges which are needed for hirudin to show maximum activity. […]
When the labeled materials from non-induced PTG718 cultures and from cultures at 3 and 5 hours after induction are treated at 70° C. and at pH 2.8 for 15 min, centrifuged to remove the denatured proteins and analyzed on an SDS-polyacrylamide gel, it is clear that the bulk of the labeled E. coli proteins are removed from the sample (FIG. 9-- lanes 1 and 2). […]
Another portion, is adjusted to pH 2.8 with dilute HCl, and then heated to 70° C. for 15 minutes. […] The supernatant is neutralized by adding dilute NaOH and the antithrombin activity is then measured. After the small modifications in volume due to the acidification and neutralization are taken into account, it can be calculated that 100% of the original activity survives this acid/heat treatment. […]

thrombin [6] = target: T1, thrombin; details: first estimate; read-out: dissociation constant of the 1:1 thrombin-hirudin complex; cited from earlier work

For hirudin, the “hirudin activity on digestion with chymotrypsin A” value ([1]; chymotrypsin A) is listed as “resisted”, the “hirudin activity on digestion with papain” value ([1]; papain) is listed as “sensitive” and the “hirudin activity on digestion with pepsin” value ([1]; pepsin) is listed as “sensitive”. The “hirudin activity on digestion with plasmin” value ([1]; plasmin) was “resisted”, the “hirudin activity on digestion with subtilopeptidase A” value ([1]; subtilopeptidase A) was “sensitive” and the “hirudin activity on digestion with trypsin” value ([1]; trypsin) was “resisted”. For the same substance, the specific activity (thrombin [2]; after further stages of purification) was 10,400 U/mg, the specific activity (thrombin [2]; hirudin extracted from whole leeches) was 6,500 anti-thrombin units per milligram and the specific activity (thrombin [2]; purified approximately 650 times from heads of leeches) was 8,500 units per milligram. For the same substance, the “activity relative to the initial hirudin activity” value (thrombin [2]; sulfate ester (Tyr 63) made to disappear completely) was 55%, the “treating DIC compared with heparin” value (DIC) was “far superior to heparin” and the tolerance [3] was “well tolerated”. The elimination [4] was “rapidly eliminated”, the LD50 (mice) was > 500,000 U/kg of body weight and the tolerated dose (mice) was “up to 1 g per kg”. For the same substance, the sensitization reactions (mice; repeated injections over a period of two weeks) was “do not lead to sensitization reactions”, the LD50 (mice; same value expressed by weight) was > 60 mg/kg and the tolerated dose (rabbits) was “up to 10 mg/kg”. For the same substance, the “resistance to heat treatment under conditions of quite low pH” value [5] was “resistance to heat treatment”, the “loss in activity after heat or acid/heat treatment” value ([5]; 70° C. for 15 min, or 70° C. after reduction of the pH to 2.8) was “no loss in activity” and the Kd (thrombin [6]) was 0.08 nM.
